{"source": "patent US20190041401A1", "about": "“Methods of Treating Subjects having Severe and/or Persistent Asthma” (National Jewish Health, priority 2015, published 2019)", "key": {"[1]": {"tested_on": "A549 cells", "experiment": "Cytokine induction of IL-33R mRNA in A549 cells", "assay_type": "cell-based, human", "conditions": "cytokine treatment for 72 hours", "experimental": "(§1) FIGS. 18A-18J show the role of IL-33 in the persistence of asthma. FIG. 18A, A549 cells were cultured in medium alone or with IL-33 ([…]), IL-1b (2 ng/mL), IL-4 (10 ng/mL), IL-13 (20 ng/mL), IL-17 (10 ng/mL), TNF (2 ng/mL), IFN-γ (10 ng/mL), or IFN-γ plus TNF (same concentrations) for 72 hours, and then mRNA was analyzed for IL-33 normalized to glyceraldehyde-3-phosphate dehydrogenase (GAPDH). *P<0.05 and **P<0.01. There were 4 to 8 mice per group. FIGS. 18B-18E show the direct effect of IL-33 on airway hyperreactivity, lung ILCs, and autoinduction. […] IN, Intranasal. […] The change in RL with the 25-mg dose of methacholine is shown (n=5 per group). *P<0.05.\n(§2) Immediately after flexiVent analysis, lung sections were collected in RIPA buffer (50 mmol/L Tris [pH 7.4], 150 mmol/L NaCl, 1 mmol/L EDTA, 1 mmol/L NaF, 1 mmol/L Na3VO4, and 0.1 mmol/L phenylmethylsulfonyl fluoride) containing protease and phosphatase inhibitors and homogenized. […] Cellular RNA was analyzed for mRNA for IL-33 and IL-33R. […] Cellular RNAwas analyzed for mRNA for IL-33. […] Cellular RNA was analyzed for mRNA for IL-33. In a fourth experiment cells were treated for 24 hours with IL-13 (20 ng/mL) and ATP, and the supernatant was collected and analyzed for IL-33 levels by means of ELISA, according to the manufacturer's instructions (R&D systems). […]"}, "[2]": {"tested_on": "A549 cells", "experiment": "IL-33 autoinduction in A549 cells after cytokine pretreatment", "assay_type": "cell-based, human", "conditions": "pretreated 24 hours with cytokine, then 72 hours with IL-33 (20 ng/mL)", "experimental": "as §1, §2"}, "[3]": {"tested_on": "human lung epithelial cell line A549", "experiment": "IL-33 mRNA induction in A549 cells (real-time PCR)", "assay_type": "cell-based", "conditions": "cytokine treatment for 72 hours, normalized to GAPDH", "experimental": "as §1\nImmediately after flexiVent analysis, lung sections were collected in RIPA buffer (50 mmol/L Tris [pH 7.4], 150 mmol/L NaCl, 1 mmol/L EDTA, 1 mmol/L NaF, 1 mmol/L Na3VO4, and 0.1 mmol/L phenylmethylsulfonyl fluoride) containing protease and phosphatase inhibitors and homogenized. Lysed samples were subjected to 10% SDS-PAGE, transferred to a polyvinylidene difluoride membrane, and then immunoblotted with primary antibodies (IL-33 [R&D Systems], tubulin [H-235], and b-actin [Santa Cruz Biotechnology, Dallas, Tex]). After washing, the membranes were incubated with a horseradish peroxidase-conjugated secondary antibody. After additional washing, the membranes were developed with ECL reagent, as previously described (Gorska et al. 2007). A549 cell culture A549 cells were cultured in RPMI in 10% FBS (HyClone; Thermo Scientific, Waltham, Mass.) and 1% penicillin/streptomycin (Gibco, Carlsbad, Calif.) and maintained at 378C in a humidified 5% CO2 incubator. All cytokines were purchased from PeproTech (Rocky Hill, N.J.). In one experiment cells were treated with medium, IL-1b (2 ng/mL), IL-4 (10 ng/mL), IL-13 (20 ng/mL), IL-17 (10 ng/mL), IL-33 (20 ng/mL), TNF (2 ng/mL), IFN-g (10 ng/mL), and TNF (2 ng/mL) plus IFN-g (10 ng/mL) for 72 hours. Cellular RNA was analyzed for mRNA for IL-33 and IL-33R. In a second experiment cells were pretreated for 24 hours with medium, IL-1b (2 ng/mL), IL-4 (10 ng/mL), IL-13 (20 ng/mL), IL-17 (10 ng/mL), TNF (2 ng/mL), or IFN-g (10 ng/mL) before stimulation for 72 hours with IL-33 (20 ng/mL). Cellular RNAwas analyzed for mRNA for IL-33. In a third experiment cells were treated for 24 hours with DRA (5 μg/mL dust mite, 15 μg/mL ragweed, and 5 μg/mL Aspergillus species). Cellular RNA was analyzed for mRNA for IL-33. In a fourth experiment cells were treated for 24 hours with IL-13 (20 ng/mL) and ATP, and the supernatant was collected and analyzed for IL-33 levels by means of ELISA, according to the manufacturer's instructions (R&D systems). […]"}, "[4]": {"tested_on": "C57Bl/6 mice", "experiment": "Intranasal IL-33 administration, outcomes after 15 days", "assay_type": "in vivo, mouse", "experimental": "as §1\nFIG. 27A, Effect of IL-13 on IL-33 secretion. A549 cells were treated overnight with medium or IL-13 (20 ng/mL) and ATP ([…]), and the released IL-33 was measured by using ELISA (n=6). *P=0.04. FIGS. 27B-27E, Direct effect of IL-33 on airway hyperreactivity and lung ILCs. C57Bl/6 mice were treated intranasally for 3 consecutive days with 400 ng per dose of IL-33. Outcome measures were evaluated 15 days after final exposure.\nMeasurement methodologies have been explained in depth in Goplen et al. (Goplen N, et al. Combined sensitization of mice to extracts of dust mite, ragweed, and Aspergillus species breaks through tolerance and establishes chronic features of asthma. J Allergy Clin Immunol 2009; 123:925-32.e11). Briefly, mice were anesthetized with ketamine (180 mg/kg), xylazine (9 mg/kg), and acepromazine (4 mg/kg). After loss of footpad pinch reflex, a tracheotomy was performed, and the mouse was attached with an 18-gauge cannula to a small-animal ventilator with a computer-controlled piston (FlexiVent; SCIREQ, Montreal, Quebec, Canada). Mice were ventilated at a frequency of 90 breaths/min with a tidal volume of 20 mL/kg during nebulization and otherwise with a frequency of 150 breaths/min with a tidal volume of 20 mL/kg while breathing against an artificial positive endexpiratory pressure of 2.5 to 3 cm H2O. Lungs were inflated to total lung capacity twice to standardize volume history. Resistance measurements were then taken to establish baselines for total lung resistance and at each methacholine dose. Group averages were expressed as fold increases in baseline resistance (means+SEMs).\nInflammation was quantified by using Metamorph image acquisition and analysis software on H&E-stained lung sections at 20× magnification, as described in Goplen et al. 2009. Airway epithelial hypertrophy and peribronchial smoothmuscle hypertrophyweremeasured as the area of epithelial or smoothmuscle per circumference of airway basement membrane. Airway inflammation was measured as the area of inflammatory infiltrates as a percentage of the total field. A minimum of 5 airways per mouse and 5 to 9 mice per group were quantified. Images were acquired on a Nikon Eclipse TE2000-U microscope by using 320 dry lenses at room temperature through a Diagnostics Instruments camera model #4.2 with Spot software 5.0 (Diagnostic Instruments, Inc, Sterling Heights, Mich.). H&E sections were mounted with Permount medium (Thermo Fisher Scientific, Inc, Waltham, Mass.). Images were adjusted for brightness and contrast to improve viewing.\nLungs were perfused with saline, and single-cell suspensions of lung cells were acquired by using mechanical mincing of lungs followed by digestion at 37° C. for 45 minutes in RPMI with 10% FBS, 1% penicillin/streptomycin, and collagenaseA (1 mg/mL). Cell suspensions were agitated at room temperature for 10 minutes in RPMI with 100 U/mL DNAse I before filtration through 40-mm filters and red blood cell lysis. Single-cell suspensions were subsequently fixed in 4% paraformaldehyde for flow cytometric analysis.\nMouse ILC2s. For mouse flow cytometric staining, all conjugate antibodies were purchased from BioLegend (San Diego, Calif.), unless otherwise stated. Mouse lung digest cells were fixed with 4% paraformaldehyde and incubated with 10% donkey serum and 1% 2.4G2. […]"}, "[5]": {"conditions": "intranasal, 400 ng per dose for 3 days, 15 days after"}, "[6]": {"conditions": "intranasal, 3 consecutive days, 400 ng per dose, 15 days after"}}, "data": [{"molecule": "IL-113: probably IL-1b cytokine (PeproTech, 2 ng/mL on A549 cells), misprinted", "values": [{"measurement": "induction of IL-33R mRNA", "setting": "[1]", "value": "strong inducer of IL-33R"}, {"measurement": "IL-33 autoinduction after preincubation with cytokine", "setting": "[2]", "value": "unable to facilitate IL-33 autoinduction"}]}, {"molecule": "IL-17: cytokine purchased from PeproTech, 10 ng/mL on A549 cells", "values": [{"measurement": "induction of IL-33 mRNA", "setting": "[3]", "value": "directly induced IL-33"}]}, {"molecule": "IL-4: cytokine purchased from PeproTech, 10 ng/mL on A549 cells (protein, UniProt P05112 25-153, looked up) Interleukin-4: HKCDITLQEIIKTLNSLTEQKTLCTELTVTDIFAASKNTTEKETFCRAATVLRQFYSHHEKDTRCLGATAQQFHRHKQLIRFLKRLDRNLWGLAGLNSCPVKEANQSTLENFLERLKTIMREKYSKCSS", "values": [{"measurement": "induction of IL-33 mRNA", "setting": "[3]", "value": "directly induced IL-33"}]}, {"molecule": "IL-33: interleukin-33 cytokine, given intranasally to mice or added to A549 cells (protein, UniProt Q8BVZ5 1-266, looked up) Interleukin-33: MRPRMKYSNSKISPAKFSSTAGEALVPPCKIRRSQQKTKEFCHVYCMRLRSGLTIRKETSYFRKEPTKRYSLKSGTKHEENFSAYPRDSRKRSLLGSIQAFAASVDTLSIQGTSLLTQSPASLSTYNDQSVSFVLENGCYVINVDDSGKDQEQDQVLLRYYESPCPASQSGDGVDGKKLMVNMSPIKDTDIWLHANDKDYSVELQRGDVSPPEQAFFVLHKKSSDFVSFECKNLPGTYIGVKDNQLALVEEKDESCNNIMFKLSKI", "values": [{"measurement": "persistence of airway hyperreactivity and airway inflammation", "setting": "[4]; after intranasal IL-33, 400 ng per dose for 3 days", "value": 2, "unit": "weeks"}, {"measurement": "IL-51 ILC2 numbers", "setting": "[4]; [5]", "value": "increased"}, {"measurement": "number of lung IL-131 ILC2s", "setting": "[4]; [5]", "value": "increased"}, {"measurement": "total number of IL-51 and IL-131 lung cells", "setting": "[4]; [5]", "value": "increased"}, {"measurement": "airway hyperreactivity", "setting": "[4]; [6]", "value": "induced airway hyperreactivity"}, {"measurement": "airway inflammation", "setting": "[4]; [6]", "value": "mild airway inflammation"}, {"measurement": "IL-33 production (autoinduction) in lung cells", "setting": "[4]; pro-surfactant protein C-positive epithelial cells and CD11b+ hematopoietic cells, 2 weeks after intranasal IL-33", "value": "persistent IL-33 production was observed"}, {"measurement": "induction of IL-33 mRNA", "setting": "[3]", "value": "capable of autoinduction"}]}]}
